In data set [1] the test system is HeLa Kyoto. In words: solubility in G1/S (NP-40 vs SDS abundance) (log2 ratio); higher = more soluble. The following applies: cell cycle stage: G1/S.
The subject of data set [2] is HeLa Kyoto. In words: melting temperature (median over replicates), in situ; higher = more thermally stable.
Data set [3] deals with HeLa Kyoto. Description: thermal stability score vs G1/S (z-score of summed log2 fold changes over temperatures); higher = more thermally stable than in G1/S.
In data set [4] the test system is HeLa Kyoto. Description: solubility change mitosis vs G1/S (difference of NP-40 vs SDS log2 ratios) (log2 ratio difference); higher = more soluble in mitosis.
[5] abbreviates: cell cycle stage: early G1 (4.5 h after nocodazole release).
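Wherever melting temperature (median over replicates), in situ is given: HeLa Kyoto cells synchronized by double thymidine or nocodazole block, proteins quantified by TMT10plex mass spectrometry, three independent biological replicates.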
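Wherever solubility change mitosis vs G1/S (difference of NP-40 vs SDS log2 ratios) is given: synchronized HeLa Kyoto cells (double thymidine block for G1/S, nocodazole release for mitosis), protein amounts in NP-40 versus SDS lysates quantified by mass spectrometry, three biological replicates.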
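Wherever solubility in G1/S (NP-40 vs SDS abundance) is given: HeLa Kyoto cells arrested at G1/S by double thymidine block, proteins quantified by TMT10plex mass spectrometry in mild NP-40 versus SDS extracts, three biological replicates.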
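Wherever thermal stability score vs G1/S (z-score of summed log2 fold changes over temperatures) is given: synchronized HeLa Kyoto cells, proteins quantified by TMT10plex mass spectrometry, three biological replicates, mitosis taken 0.5 h after nocodazole release, G1/S directly after double thymidine block.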

For the sequence “MGSGPIDPKELLKGLDSFLNRDGEVKSVDGISKIFSLMKEARKMVSRCTYLNILLQTRSPEILVKFIDVGGYKLLNNWLTYSKTTNNIPLLQQILLTLQHLPLTVDHLKQNNTAKLVKQLSKSSEDEELRKLASVLVSDWMAVIRSQSSTQPAEKDKKKRKDEGKSRTTLPERPLTEVKAETRAEEAPEKKREKPKSLRTTAPSHAKFRSTGLELETPSLVPVKKNASTVVVSDKYNLKPIPLKRQSNVAAPGDATPPAEKKYKPLNTTPNATKEIKVKIIPPQPMEGLGFLDALNSAPVPGIKIKKKKKVLSPTAAKPSPFEGKTSTEPSTAKPSSPEPAPPSEAMDADRPGTPVPPVEVPELMDTASLEPGALDAKPVESPGDPNQLTRKGRKRKSVTWPEEGKLREYFYFELDETERVNVNKIKDFGEAAKREILSDRHAFETARRLSHDNMEEKVPWVCPRPLVLPSPLVTPGSNSQERYIQAEREKGILQELFLNKESPHEPDPEPYEPIPPKLIPLDEECSMDETPYVETLEPGGSGGSPDGAGGSKLPPVLANLMGSMGAGKGPQGPGGGGINVQEILTSIMGSPNSHPSEELLKQPDYSDKIKQMLVPHGLLGPGPIANGFPPGGPGGPKGMQHFPPGPGGPMPGPHGGPGGPVGPRLLGPPPPPRGGDPFWDGPGDPMRGGPMRGGPGPGPGPYHRGRGGRGGNEPPPPPPPFRGARGGRSGGGPPNGRGGPGGGMVGGGGHRPHEGPGGGMGNSSGHRPHEGPGGGMGSGHRPHEGPGGSMGGGGGHRPHEGPGGGISGGSGHRPHEGPGGGMGAGGGHRPHEGPGGSMGGSGGHRPHEGPGHGGPHGHRPHDVPGHRGHDHRGPPPHEHRGHDGPGHGGGGHRGHDGGHSHGGDMSNRPVCRHFMMKGNCRYENNCAFYHPGVNGPPLP [PPP1R10]”, the “solubility in G1/S (log2)” value in data set [1] worked out at 0.0711. In addition, the melting temperature came out at 51 °C in data set [2] (cell cycle stage: G1/S) and 50.8 °C in data set [2] (cell cycle stage: mitosis). Further, the thermal stability score in data set [3] (setting [5]) turned out to be 4.23; in data set [3] (cell cycle stage: mitosis), 3.65. In addition, in data set [4], the “solubility change mitosis (log2)” value turned out to be 0.274.
For “MGSMFRSEEVALVQLFLPTAAAYTCVSRLGELGLVEFRDLNASVSAFQRRFVVDVRRCEELEKTFTFLQEEVRRAGLVLPPPKGRLPAPPPRDLLRIQEETERLAQELRDVRGNQQALRAQLHQLQLHAAVLRQGHEPQLAAAHTDGASERTPLLQAPGGPHQDLRVNFVAGAVEPHKAPALERLLWRACRGFLIASFRELEQPLEHPVTGEPATWMTFLISYWGEQIGQKIRKITDCFHCHVFPFLQQEEARLGALQQLQQQSQELQEVLGETERFLSQVLGRVLQLLPPGQVQVHKMKAVYLALNQCSVSTTHKCLIAEAWCSVRDLPALQEALRDSSMEEGVSAVAHRIPCRDMPPTLIRTNRFTASFQGIVDAYGVGRYQEVNPAPYTIITFPFLFAVMFGDVGHGLLMFLFALAMVLAENRPAVKAAQNEIWQTFFRGRYLLLLMGLFSIYTGFIYNECFSRATSIFPSGWSVAAMANQSGWSDAFLAQHTMLTLDPNVTGVFLGPYPFGIDPIWSLAANHLSFLNSFKMKMSVILGVVHMAFGVVLGVFNHVHFGQRHRLLLETLPELTFLLGLFGYLVFLVIYKWLCVWAARAASAPSILIHFINMFLFSHSPSNRLLYPRQEVVQATLVVLALAMVPILLLGTPLHLLHRHRRRLRRRPADRQEENKAGLLDLPDASVNGWSSDEEKAGGLDDEEEAELVPSEVLMHQAIHTIEFCLGCVSNTASYLRLWALSLAHAQLSEVLWAMVMRIGLGLGREVGVAAVVLVPIFAAFAVMTVAILLVMEGLSAFLHALRLHWVEFQNKFYSGTGYKLSPFTFAATDD [TCIRG1]”, in data set [1], the “solubility in G1/S (log2)” value was -0.278. Further, the melting temperature in data set [2] (cell cycle stage: G1/S) turned out to be 53 °C; in data set [2] (cell cycle stage: mitosis), 54.1 °C. For the same sequence, the thermal stability score in data set [3] (setting [5]) was -2.43; in data set [3] (cell cycle stage: mitosis) it was -1.47. Further, the “solubility change mitosis (log2)” value in data set [4] came to 0.0336.
For “MGSPEGRFHFAIDRGGTFTDVFAQCPGGHVRVLKLLSEDPANYADAPTEGIRRILEQEAGMLLPRDQPLDSSHIASIRMGTTVATNALLERKGERVALLVTRGFRDLLHIGTQARGDLFDLAVPMPEVLYEEVLEVDERVVLHRGEAGTGTPVKGRTGDLLEVQQPVDLGALRGKLEGLLSRGIRSLAVVLMHSYTWAQHEQQVGVLARELGFTHVSLSSEAMPMVRIVPRGHTACADAYLTPAIQRYVQGFCRGFQGQLKDVQVLFMRSDGGLAPMDTFSGSSAVLSGPAGGVVGYSATTYQQEGGQPVIGFDMGGTSTDVSRYAGEFEHVFEASTAGVTLQAPQLDINTVAAGGGSRLFFRSGLFVVGPESAGAHPGPACYRKGGPVTVTDANLVLGRLLPASFPCIFGPGENQPLSPEASRKALEAVATEVNSFLTNGPCPASPLSLEEVAMGFVRVANEAMCRPIRALTQARGHDPSAHVLACFGGAGGQHACAIARALGMDTVHIHRHSGLLSALGLALADVVHEAQEPCSLLYAPETFVQLDQRLSRLEEQCVDALQAQGFPRSQISTESFLHLRYQGTDCALMVSAHQHPATARSPRAGDFGAAFVERYMREFGFVIPERPVVVDDVRVRGTGRSGLRLEDAPKAQTGPPRVDKMTQCYFEGGYQETPVYLLAELGYGHKLHGPCLIIDSNSTILVEPGCQAEVTKTGDICISVGAEVPGTVGPQLDPIQLSIFSHRFMSIAEQMGRILQRTAISTNIKERLDFSCALFGPDGGLVSNAPHIPVHLGAMQETVQFQIQHLGADLHPGDVLLSNHPSAGGSHLPDLTVITPVFWPGQTRPVFYVASRGHHADIGGITPGSMPPHSTMLQQEGAVFLSFKLVQGGVFQEEAVTEALRAPGKVPNCSGTRNLHDNLSDLRAQVAANQKGIQLVGELIGQYGLDVVQAYMGHIQANAELAVRDMLRAFGTSRQARGLPLEVSSEDHMDDGSPIRLRVQISLSQGSAVFDFSGTGPEVFGNLNAPRAVTLSALIYCLRCLVGRDIPLNQGCLAPVRVVIPRGSILDPSPEAAVVGGNVLTSQRVVDVILGAFGACAASQGCMNNVTLGNAHMGYYETVAGGAGAGPSWHGRSGVHSHMTNTRITDPEILESRYPVILRRFELRRGSGGRGRFRGGDGVTRELLFREEALLSVLTERRAFRPYGLHGGEPGARGLNLLIRKNGRTVNLGGKTSVTVYPGDVFCLHTPGGGGYGDPEDPAPPPGSPPQALAFPEHGSVYEYRRAQEAV [OPLAH]”, in data set [1], the “solubility in G1/S (log2)” value was determined as 0.0511. Besides, the melting temperature in data set [2] (cell cycle stage: G1/S) came to 51.1 °C; in data set [2] (cell cycle stage: mitosis) it was 51.3 °C. The values for the thermal stability score in data set [3] (setting [5]) and in data set [3] (cell cycle stage: mitosis) were -0.162 and -0.669, respectively. In data set [4], the “solubility change mitosis (log2)” value is -0.171.
Turning to “MGSQVSVESGALHVVIVGGGFGGIAAASQLQALNVPFMLVDMKDSFHHNVAALRASVETGFAKKTFISYSVTFKDNFRQGLVVGIDLKNQMVLLQGGEALPFSHLILATGSTGPFPGKFNEVSSQQAAIQAYEDMVRQVQRSRFIVVVGGGSAGVEMAAEIKTEYPEKEVTLIHSQVALADKELLPSVRQEVKEILLRKGVQLLLSERVSNLEELPLNEYREYIKVQTDKGTEVATNLVILCTGIKINSSAYRKAFESRLASSGALRVNEHLQVEGHSNVYAIGDCADVRTPKMAYLAGLHANIAVANIVNSVKQRPLQAYKPGALTFLLSMGRNDGVGQISGFYVGRLMVRLTKSRDLFVSTSWKTMRQSPP [AIFM2]”, in data set [1], the “solubility in G1/S (log2)” value amounted to 0.112. In addition, the melting temperature in data set [2] (cell cycle stage: G1/S) turned out to be 55.3 °C; in data set [2] (cell cycle stage: mitosis), 53.7 °C. For the same sequence, the thermal stability score in data set [3] (setting [5]) is -1.05; in data set [3] (cell cycle stage: mitosis) it was -2.26. The “solubility change mitosis (log2)” value in data set [4] is -0.209.

Values taken from the supplement of paper PMC5998384.
